From US20110281938, “APTAMERS TO TISSUE FACTOR PATHWAY INHIBITOR AND THEIR USE AS BLEEDING DISORDER THERAPEUTICS” (Baxter Healthcare S.A., published 2011) come the findings set out here.

Sequences and labels used below:
B1: ARC33159 (mixed)
RNA: GGAAUAUACUCGGCUCGUUAGGUGCGUAUAUA
modifications: 2'-OMe A/G/U and mC11, other C 2'-deoxy, 3' idT
B2: ARC34868 (mixed)
RNA: GGAAUAAACUUGGCUCGUUAGGUGCGUAUAUA
modifications: 2'-OMe A/G/U, 2'-deoxy C, 3' idT
B3: ARC33161 (mixed)
RNA: GGAAUAUACUUGUCUCGUUAGGUGCGUAUAUA
modifications: 2'-OMe A/G/U, 2'-deoxy C, 3' idT
B4: ARC33157 (mixed)
mixed: GGAAUAUATUUGGCUCGUUAGGUGCGUAUAUA
modifications: 2'-OMe A/G/U, dT9, 2'-deoxy C, 3' idT
B5: ARC33160 (mixed)
RNA: GGAAUAUACUUUGCUCGUUAGGUGCGUAUAUA
modifications: 2'-OMe A/G/U, 2'-deoxy C, 3' idT
B6: ARC34869 (mixed)
RNA: GGAAUAGACUUGGCUCGUUAGGUGCGUAUAUA
modifications: 2'-OMe A/G/U, 2'-deoxy C, 3' idT
B7: ARC33163 (mixed)
RNA: GGAAUAUACUUGGCCCGUUAGGUGCGUAUAUA
modifications: 2'-OMe A/G/U and mC15, other C 2'-deoxy, 3' idT
B8: ARC34857 (XNA)
RNA: CGAAUAUACUUGGCUCGUUAGGUGCGUAUAUA
modifications: 2'-OMe except dC9, dC14, dC16, dC25; 3' idT
B9: ARC34862 (XNA)
RNA: GGAGUAUACUUGGCUCGUUAGGUGCGUAUAUA
modifications: 2'-OMe except dC9, dC14, dC16, dC25; 3' idT
B10: ARC34859 (XNA)
RNA: GCAAUAUACUUGGCUCGUUAGGUGCGUAUAUA
modifications: 2'-OMe except dC9, dC14, dC16, dC25; 3' idT
B11: ARC34861 (XNA)
RNA: GGCAUAUACUUGGCUCGUUAGGUGCGUAUAUA
modifications: 2'-OMe except dC9, dC14, dC16, dC25; 3' idT
B12: ARC34858 (XNA)
RNA: GAAAUAUACUUGGCUCGUUAGGUGCGUAUAUA
modifications: 2'-OMe except dC9, dC14, dC16, dC25; 3' idT
B13: ARC34860 (XNA)
RNA: GGGAUAUACUUGGCUCGUUAGGUGCGUAUAUA
modifications: 2'-OMe except dC9, dC14, dC16, dC25; 3' idT
B14: ARC34863 (XNA)
RNA: GGACUAUACUUGGCUCGUUAGGUGCGUAUAUA
modifications: 2'-OMe except dC9, dC14, dC16, dC25; 3' idT
B15: ARC32306 (mixed)
RNA: AAUAUACUUGGCUCGUUAGGUGCGUAUA
modifications: 2'-OMe A/G/U, 2'-deoxy C, 3' idT
B16: ARC32305 (mixed)
RNA: GAAUAUACUUGGCUCGUUAGGUGCGUAUAU
modifications: 2'-OMe A/G/U, 2'-deoxy C, 3' idT
B17: ARC33144 (mixed)
RNA: GGUAUACUUGGCUCGUUAGGUGCGUAUAUA
modifications: 2'-OMe A/G/U, 2'-deoxy C, 3' idT
B18: ARC32303 (mixed)
RNA: AUAUACUUGGCUCGUUAGGUGCGUAUAUA
modifications: 2'-OMe A/G/U, 2'-deoxy C, 3' idT
B19: ARC33895 (mixed)
RNA: AUACUUGGCUCGUUAGGUGCGUAUA
modifications: 2'-OMe A/G/U, 2'-deoxy C, 3' idT
B20: ARC33142 (mixed)
RNA: GGAAUAUACUUGGCUCGUUAGGUGCGUAUUA
modifications: 2'-OMe A/G/U, 2'-deoxy C, 3' idT
B21: ARC33143 (mixed)
RNA: GGAAUAUACUUGGCUCGUUAGGUGCGUAUAA
modifications: 2'-OMe A/G/U, 2'-deoxy C, 3' idT
B22: ARC18555 (mixed)
RNA: GGAAUAUACUUGGCUCGUUAGGUGCGUAUAU
modifications: 2'-OMe A/G/U, 2'-deoxy C, 3' idT
B23: ARC32301 (mixed)
RNA: GAAUAUACUUGGCUCGUUAGGUGCGUAUAUA
modifications: 2'-OMe A/G/U, 2'-deoxy C, 3' idT
B24: ARC33121 (mixed)
RNA: GGAAAUACUUGGCUCGUUAGGUGCGUAUAUA
modifications: 2'-OMe A/G/U, 2'-deoxy C, 3' idT
B25: ARC33120 (mixed)
RNA: GGAUAUACUUGGCUCGUUAGGUGCGUAUAUA
modifications: 2'-OMe A/G/U, 2'-deoxy C, 3' idT
B26: ARC33890 (mixed)
RNA: AUAUACUUGGCUCGUUAGGUGCGUAUA
modifications: 2'-OMe A/G/U, 2'-deoxy C, 3' idT
B27: ARC32307 (mixed)
RNA: AUAUACUUGGCUCGUUAGGUGCGUAU
modifications: 2'-OMe A/G/U, 2'-deoxy C, 3' idT
B28: ARC33907 (mixed)
RNA: GGAAUACUUGGCUCGUUAGGUGCGUAUAUA
modifications: 2'-OMe A/G/U, 2'-deoxy C, 3' idT
B29: ARC33891 (mixed)
RNA: UAUACUUGGCUCGUUAGGUGCGUAUA
modifications: 2'-OMe A/G/U, 2'-deoxy C, 3' idT
B30: ARC32302 (mixed)
RNA: AAUAUACUUGGCUCGUUAGGUGCGUAUAUA
modifications: 2'-OMe A/G/U, 2'-deoxy C, 3' idT
B31: ARC33900 (mixed)
RNA: UUACUUGGCUCGUUAGGUGCGUAUA
modifications: 2'-OMe A/G/U, 2'-deoxy C, 3' idT
B32: ARC33167 (mixed)
RNA: GGAAUAUACUUGGCUCGUCAGGUGCGUAUAUA
modifications: 2'-OMe A/G/U and mC19, other C 2'-deoxy, 3' idT
B33: ARC33149 (mixed)
RNA: UGAAUAUACUUGGCUCGUUAGGUGCGUAUAUA
modifications: 2'-OMe A/G/U, 2'-deoxy C, 3' idT
B34: ARC33179 (mixed)
RNA: GGAAUAUACUUGGCUCGUUAGGUGCGUAUACA
modifications: 2'-OMe A/G/U and mC31, other C 2'-deoxy, 3' idT
B35: ARC33180 (mixed)
RNA: GGAAUAUACUUGGCUCGUUAGGUGCGUAUAUU
modifications: 2'-OMe A/G/U, 2'-deoxy C, 3' idT
B36: ARC33158 (mixed)
RNA: GGAAUAUACCUGGCUCGUUAGGUGCGUAUAUA
modifications: 2'-OMe A/G/U and mC10, other C 2'-deoxy, 3' idT
B37: ARC33150 (mixed)
RNA: GUAAUAUACUUGGCUCGUUAGGUGCGUAUAUA
modifications: 2'-OMe A/G/U, 2'-deoxy C, 3' idT
B38: ARC33151 (mixed)
RNA: GGUAUAUACUUGGCUCGUUAGGUGCGUAUAUA
modifications: 2'-OMe A/G/U, 2'-deoxy C, 3' idT
B39: ARC33153 (mixed)
RNA: GGAACAUACUUGGCUCGUUAGGUGCGUAUAUA
modifications: 2'-OMe A/G/U and mC5, other C 2'-deoxy, 3' idT
B40: ARC33152 (mixed)
RNA: GGAUUAUACUUGGCUCGUUAGGUGCGUAUAUA
modifications: 2'-OMe A/G/U, 2'-deoxy C, 3' idT
B41: ARC33178 (mixed)
RNA: GGAAUAUACUUGGCUCGUUAGGUGCGUAUUUA
modifications: 2'-OMe A/G/U, 2'-deoxy C, 3' idT

T1 sequence (P10646 29-304): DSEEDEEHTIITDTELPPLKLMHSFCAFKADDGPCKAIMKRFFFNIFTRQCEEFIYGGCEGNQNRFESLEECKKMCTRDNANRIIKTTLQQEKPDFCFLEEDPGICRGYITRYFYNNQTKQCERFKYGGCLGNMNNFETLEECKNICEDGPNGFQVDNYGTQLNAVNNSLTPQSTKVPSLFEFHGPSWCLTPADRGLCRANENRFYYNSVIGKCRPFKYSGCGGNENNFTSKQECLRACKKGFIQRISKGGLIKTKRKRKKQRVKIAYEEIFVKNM

The first series deals with T1, TFPI (tissue factor pathway inhibitor, full-length) (Homo sapiens, UniProt P10646 SEQ:1-276). In words: competition; fails binding-competition criterion. The note with it: tags: American Diagnostica 4500PC/4900PC, E. coli expressed. How it is done:
(§1) The substituted ARC17480 molecules were assayed for binding and function. The assays used for this evaluation were the calibrated automated thrombogram (CAT) assay, a dot-blot binding-competition assay and a FXa activity assay. The results of these assays are summarized in Table 40 and depicted in FIG. 147. A mutation was considered tolerated for activity if it met the criteria of at least two of the three assays that were carried out. Mutations that are tolerated (“yes”) and not tolerated (“no”) are identified in Table 40. The experimental details and the criteria used for each assay are described in the following paragraphs. The molecules described in this example were first tested in the CAT assay and the dot-blot binding-competition assay. In most cases, molecules were only tested in the FXa assay if there was a discrepancy between the results in the CAT assay and the dot-blot binding-competition assay.
(§2) Each molecule was evaluated for binding to tissue factor pathway inhibitor (TFPI) in a binding-competition assay. For these experiments, 10 nM human TFPI (American Diagnostica, Stamford, Conn., catalog #4900PC) was incubated with trace amounts of radiolabeled ARC17480 and 5000 nM, 1666.67 nM, 555.56 nM, 185.19 nM, 61.73 nM, 20.58 nM, 6.86 nM, 2.29 nM, 0.76 nM or 0.25 nM of unlabeled competitor aptamer. ARC17480 was included as a competitor in every experiment as a control. For each molecule, the percentage of radiolabeled ARC17480 bound at each competitor aptamer concentration was used for analysis. The percentage of radiolabeled ARC17480 bound was plotted as a function of aptamer concentration and fit to the equation y=(max/(1+x/IC₅₀))+int, where y=the percentage of radiolabeled ARC17480 bound, x=the concentration of aptamer, max=the maximum radiolabeled ARC17480 bound, and int=the y-intercept, to generate an IC₅₀ value for binding-competition. The IC₅₀ of each aptamer was compared to the IC₅₀ of ARC17480 that was evaluated in the same experiment. A mutation was considered tolerated in the binding-competition assay if the IC₅₀ of that molecule was not more than 5-fold greater than that of ARC17480 evaluated in the same experiment. Tolerated mutations are indicated in Table 40 as meeting the assay criteria (“yes”) or not meeting the assay criteria (“no”).
Consider B1, for which the binding signal is > 5 fold IC50 of ARC17480.
Same read-out and setting: next, B2: > 5 fold IC50 of ARC17480; B3: > 5 fold IC50 of ARC17480; B4: > 5 fold IC50 of ARC17480.
The same measure, in the same setting: under B5 stands > 5 fold IC50 of ARC17480; under B6, > 5 fold IC50 of ARC17480.
Consider B7, for which the binding signal was > 5 fold IC50 of ARC17480.

Another series concerns the target T1, TFPI (tissue factor pathway inhibitor, …). Briefly: competition; dot-blot. The note with it: tags: American Diagnostica 4500PC/4900PC, E. coli expressed. How it is done: as §1, §2
The molecule B8 gave a binding signal of at most 5 fold IC50 vs ARC17480.
As for B9, the binding signal is at most 5 fold IC50 vs ARC17480.
As for B10, the binding signal was at most 5 fold IC50 vs ARC17480.
Still for that read-out and setting: under B11 stands at most 5 fold IC50 vs ARC17480; under B12, at most 5 fold IC50 vs ARC17480; under B13, at most 5 fold IC50 vs ARC17480.
The same measure, in the same setting: next, B14: at most 5 fold IC50 vs ARC17480.

The target is the same in the next series. In words: competition; meets binding-competition criterion. The conditions noted are these: tags: American Diagnostica 4500PC/4900PC, E. coli expressed. The method, then:
Each molecule was evaluated for binding to tissue factor pathway inhibitor (TFPI) in a binding-competition assay. For these experiments, 10 nM human TFPI (American Diagnostica, Stamford, Conn., catalog #4500PC) was incubated with trace amounts of radiolabeled ARC17480 and 5000 nM, 1666.67 nM, 555.56 nM, 185.19 nM, 61.73 nM, 20.58 nM, 6.86 nM, 2.29 nM, 0.76 nM or 0.25 nM of unlabeled competitor aptamer. ARC17480 was included as a competitor in every experiment as a control. For each molecule, the percentage of radiolabeled ARC17480 bound at each competitor aptamer concentration was used for analysis. The percentage of radiolabeled ARC17480 bound was plotted as a function of aptamer concentration and fit to the equation y=(max/(1+x/IC₅₀))+int, where y=the percentage of radiolabeled ARC17480 bound, x=the concentration of aptamer, max=the maximum radiolabeled ARC17480 bound, and int=the y-intercept, to generate an IC₅₀ value for binding-competition. The IC₅₀ of each aptamer was compared to the IC₅₀ of ARC17480 that was evaluated in the same experiment. A substitution was considered tolerated in the binding-competition assay if the IC₅₀ of that molecule was not more than 5-fold greater than that of ARC17480 evaluated in the same experiment. Tolerated substitutions are indicated in Table 38 as meeting the assay criteria (“yes”) or not meeting the assay criteria (“no”).
Consider B15, for which the binding signal is ≤ 5 fold IC50 of ARC17480.
Still for that read-out and setting: next, B16: ≤ 5 fold IC50 of ARC17480; B17: ≤ 5 fold IC50 of ARC17480; B18: ≤ 5 fold IC50 of ARC17480.
Still for that read-out and setting: next, B19: ≤ 5 fold IC50 of ARC17480; B20: ≤ 5 fold IC50 of ARC17480.
Still for that read-out and setting: under B21 stands ≤ 5 fold IC50 of ARC17480.
B22: the binding signal is ≤ 5 fold IC50 of ARC17480.
On the same count and under the same terms, under B23 stands ≤ 5 fold IC50 of ARC17480; under B24, ≤ 5 fold IC50 of ARC17480.
In the case of B25, the binding signal is ≤ 5 fold IC50 of ARC17480.
Still for that read-out and setting: under B26 stands ≤ 5 fold IC50 of ARC17480; under B27, ≤ 5 fold IC50 of ARC17480.
On the same count and under the same terms, under B28 stands ≤ 5 fold IC50 of ARC17480; under B29, ≤ 5 fold IC50 of ARC17480; under B30, ≤ 5 fold IC50 of ARC17480.
Same read-out and setting: next, B31: ≤ 5 fold IC50 of ARC17480.

Another series shares this target. In words: competition; meets binding-competition criterion. The note with it: tags: American Diagnostica 4500PC/4900PC, E. coli expressed. The source holds these as a separate data set. How it is done: as §1, §2
With B32, the binding signal is ≤ 5 fold IC50 of ARC17480.
Take B33: the binding signal is ≤ 5 fold IC50 of ARC17480.
On the same count and under the same terms, under B34 stands ≤ 5 fold IC50 of ARC17480; under B35, ≤ 5 fold IC50 of ARC17480; under B36, ≤ 5 fold IC50 of ARC17480.
The same measure, in the same setting: next, B37: ≤ 5 fold IC50 of ARC17480; B38: ≤ 5 fold IC50 of ARC17480.
The same measure, in the same setting: under B39 stands ≤ 5 fold IC50 of ARC17480; under B40, ≤ 5 fold IC50 of ARC17480; under B41, ≤ 5 fold IC50 of ARC17480.
